Measured values from patent US20250043017A1.

What was measured:
[1] = target: human PD1 on Jurkat/AP1-luc/hPD1 cells (human) (UniProt Q15116); test: cell-based or functional assay
[2] = target: human 4-1BB expressed with a C-terminal myc-myc-hexahistidine tag (h4-1BB.mmH) (human); test: blocking ELISA, 0.25 nM h4-1BB-mmh binding to coated 6His-Flag-h4-1BBL
Chain of human 4-1BB expressed with a C-terminal myc-myc-hexahistidine tag (h4-1BB.mmH) (human) (chain, as listed by the source limits assumed): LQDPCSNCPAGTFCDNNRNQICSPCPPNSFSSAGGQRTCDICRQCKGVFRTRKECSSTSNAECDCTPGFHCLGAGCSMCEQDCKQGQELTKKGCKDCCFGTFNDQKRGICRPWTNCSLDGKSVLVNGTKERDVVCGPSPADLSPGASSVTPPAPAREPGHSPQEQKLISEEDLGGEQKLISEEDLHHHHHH

Chain of human PD1 on Jurkat/AP1-luc/hPD1 cells (human) (Q15116 25-288): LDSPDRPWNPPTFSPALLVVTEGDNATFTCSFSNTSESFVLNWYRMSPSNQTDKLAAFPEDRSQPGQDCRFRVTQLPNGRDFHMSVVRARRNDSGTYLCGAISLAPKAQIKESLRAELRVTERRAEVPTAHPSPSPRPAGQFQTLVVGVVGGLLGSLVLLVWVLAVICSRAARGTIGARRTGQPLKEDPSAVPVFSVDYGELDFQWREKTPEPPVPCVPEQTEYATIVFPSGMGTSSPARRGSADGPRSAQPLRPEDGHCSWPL

AP-1 luciferase EC50, Jurkat/AP1-luc/hPD1 + WSU-DLCL2/hPD-L1 + CD20xCD3 [1]	AP-1 luciferase MAX (RLU), Jurkat/AP1-luc/hPD1 + WSU-DLCL2/hPD-L1 + CD20xCD3 [1]	% Blocking at 100 nM mAb [2]	Binder
290 pM	1.1e+06 RLU		REGN2810 (antibody, INN chains, looked up, V domains shown) VH: EVQLLESGGVLVQPGGSLRLSCAASGFTFSNFGMTWVRQAPGKGLEWVSGISGGGRDTYFADSVKGRFTISRDNSKNTLYLQMNSLKGEDTAVYYCVKWGNIYFDYWGQGTLVTVSS VL: DIQMTQSPSSLSASVGDSITITCRASLSINTFLNWYQQKPGKAPNLLIYAASSLHGGVPSRFSGSGSGTDFTLTIRTLQPEDFATYYCQQSSNTPFTFGPGTVVDFR
		72%	Comparator 1 (antibody, INN chains, looked up, V domains shown) VH: EVQLVQSGAEVKKPGESLRISCKGSGYSFSTYWISWVRQMPGKGLEWMGKIYPGDSYTNYSPSFQGQVTISADKSISTAYLQWSSLKASDTAMYYCARGYGIFDYWGQGTLVTVSS VL: SYELTQPPSVSVSPGQTASITCSGDNIGDQYAHWYQQKPGQSPVLVIYQDKNRPSGIPERFSGSNSGNTATLTISGTQAMDEADYYCATYTGFGSLAVFGGGTKLTVLG
